The test addresses T1, β subunit of the plastid-encoded RNA polymerase (SaRpoB) (Sinapis alba (endogenous in cotyledon …, UniProt P46818 1-1078)).
T1 construct: RNA polymerase β subunit, product of the plastid gene rpoB, Sinapis alba
T1 sequence (looked up): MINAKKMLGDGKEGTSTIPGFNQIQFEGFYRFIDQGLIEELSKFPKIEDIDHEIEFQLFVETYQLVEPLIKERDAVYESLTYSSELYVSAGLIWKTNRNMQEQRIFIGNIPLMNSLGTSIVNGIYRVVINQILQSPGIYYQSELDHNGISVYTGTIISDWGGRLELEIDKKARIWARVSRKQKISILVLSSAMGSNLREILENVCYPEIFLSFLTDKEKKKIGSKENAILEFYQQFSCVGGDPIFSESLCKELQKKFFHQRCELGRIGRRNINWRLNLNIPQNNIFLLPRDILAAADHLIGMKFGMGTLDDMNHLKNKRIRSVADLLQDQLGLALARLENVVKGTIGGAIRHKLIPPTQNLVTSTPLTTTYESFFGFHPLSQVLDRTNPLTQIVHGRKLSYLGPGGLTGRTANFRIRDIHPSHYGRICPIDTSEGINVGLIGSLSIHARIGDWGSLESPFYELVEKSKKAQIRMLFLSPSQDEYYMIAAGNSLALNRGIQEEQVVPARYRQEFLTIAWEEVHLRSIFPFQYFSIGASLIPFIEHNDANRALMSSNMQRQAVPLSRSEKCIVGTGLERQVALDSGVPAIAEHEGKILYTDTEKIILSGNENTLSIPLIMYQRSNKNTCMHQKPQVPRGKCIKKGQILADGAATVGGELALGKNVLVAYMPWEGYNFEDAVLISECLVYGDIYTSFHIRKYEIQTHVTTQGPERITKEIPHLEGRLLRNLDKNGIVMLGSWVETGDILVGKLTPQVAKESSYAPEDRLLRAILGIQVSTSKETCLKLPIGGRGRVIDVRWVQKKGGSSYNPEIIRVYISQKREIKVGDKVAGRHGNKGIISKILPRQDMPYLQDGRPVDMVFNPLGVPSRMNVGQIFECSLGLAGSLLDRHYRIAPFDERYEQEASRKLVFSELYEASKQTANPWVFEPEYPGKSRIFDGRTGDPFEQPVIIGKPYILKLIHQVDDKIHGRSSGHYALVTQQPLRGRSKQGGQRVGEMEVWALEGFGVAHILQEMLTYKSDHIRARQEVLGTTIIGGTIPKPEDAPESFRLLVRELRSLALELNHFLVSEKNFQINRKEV
The test can be described thus: co-purification of the native complex with mass spectrometry; chloroplast lysate of S. alba cotyledons; heparin resin (elution 1.2 M (NH4)2SO4), 35-15% glycerol gradient, Q-Sepharose (0-1 M NaCl), 100-kDa cutoff concentration; three independent preparations; label-free MS, iBAQ values. Particulars: partners not purified.

B1: α subunit of the plastid-encoded RNA polymerase (SaRpoA) (natural protein, UniProt Q9XQN8 1-327, looked up)
chain: MVREKVKVSTRTLQWKCVESRRDSKRLYYGRFILSPLMKGQADTIGIAMARALLGEIEGTCITRAKSENIPHDYSNIVGIQESVHEILMNLNEIVLKSNLYGTRNPFICVQGPGYITARDIILPPSVEIVDNTQHIATLTEPINLCIGLKIERNRGYSLKMSNNFEDRSYPIDAVFMPVQNANHSIHSYGNGNEKQEILFIEIWTNGSLTPKEALYEASRNLINLFIPFLHVEEETFYLENNQHQVTLPVFPFHNKLVNLRQKKKELAFQYIFIDQLELPPRIYNCLKKSNIHTLLDLLNNSQEDLIKMEHFHIEDVKKLLDILEKK
notes: RNA polymerase α subunit, product of the plastid gene rpoA, Sinapis alba
As usually defined, the stoichiometry N is a count of units in the complex or per binding partner. As to B1, the “stoichiometry N” value is around 2.

The values are drawn from article PMC9456514, “Three-Dimensional Envelope and Subunit Interactions of the Plastid-Encoded RNA Polymerase from Sinapis alba” (International Journal of Molecular Sciences, 2022).
